According to patent US6323001A, “Increasing the trehalose content of organisms by transforming them with combinations of the structural genes for trehalose synthase” (BTG International Ltd., priority 1994, dated 2001):

System: phosphoglucoisomerase (PGI) activity
Assay: PGI activity of TPS activator
Assay type: biochemical, S. cerevisiae
Conditions: 50 mM HEPES/KOH pH 7.0, 5 mM MgCl2, 5 mM F6P; stored several months at 0° C.
Procedure: The PGI activity of a sample of TPS activator that had been stored for several months at 0° C. was measured in 50 mM HEPES/KOH pH 7.0, 5 mM MgCl2, 5 mM F6P and 0.4 mg/ml NADP. A specific activity of 190 U/mg was found.

B1: TPS activator: TPS activator from S. cerevisiae, identical to yeast phosphoglucoisomerase (protein, UniProt P12709 2-554, looked up)
Glucose-6-phosphate isomerase: SNNSFTNFKLATELPAWSKLQKIYESQGKTLSVKQEFQKDAKRFEKLNKTFTNYDGSKILFDYSKNLVNDEIIAALIELAKEANVTGLRDAMFKGEHINSTEDRAVYHVALRNRANKPMYVDGVNVAPEVDSVLKHMKEFSEQVRSGEWKGYTGKKITDVVNIGIGGSDLGPVMVTEALKHYAGVLDVHFVSNIDGTHIAETLKVVDPETTLFLIASKTFTTAETITNANTAKNWFLSKTGNDPSHIAKHFAALSTNETEVAKFGIDTKNMFGFESWVGGRYSVWSAIGLSVALYIGYDNFEAFLKGAEAVDNHFTQTPLEDNIPLLGGLLSVWYNNFFGAQTHLVAPFDQYLHRFPAYLQQLSMESNGKSVTRGNVFTDYSTGSILFGEPATNAQHSFFQLVHQGTKLIPSDFILAAQSHNPIENKLHQKMLASNFFAQAEALMVGKDEEQVKAEGATGGLVPHKVFSGNRPTTSILAQKITPATLGALIAYYEHVTFTEGAIWNINSFDQWGVELGKVLAKVIGKELDNSSTISTHDASTNGLINQFKEWM
PGI specific activity: 190 U/mg
